Measured values published in patent publication US20100233157A1 (published 2010).

What was measured:
[1] = target: T1, Mouse Fas on the cell surface (mouse, UniProt P25446 22-327); experiment: flow cytometry histograms (FL1-H) on mouse PBL, FITC anti-human kappa secondary
T1 construct: whole, on cells; also called Fas on peripheral blood lymphocytes of BALB/c mice
T1 sequence (looked up): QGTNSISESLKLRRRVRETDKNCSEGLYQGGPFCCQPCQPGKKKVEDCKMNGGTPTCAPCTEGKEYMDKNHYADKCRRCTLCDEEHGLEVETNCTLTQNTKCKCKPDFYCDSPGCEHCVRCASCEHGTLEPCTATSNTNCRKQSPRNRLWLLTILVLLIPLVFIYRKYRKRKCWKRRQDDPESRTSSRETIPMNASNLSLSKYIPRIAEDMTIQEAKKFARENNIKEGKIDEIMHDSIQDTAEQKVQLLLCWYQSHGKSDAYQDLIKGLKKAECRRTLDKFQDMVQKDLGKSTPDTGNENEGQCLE
Excerpt: (§1) Reactivity of F45D9-γ1 or F45D9-γ4 mAb with Fas molecules of various species was initially screened using primary blood cells or lymphocytes cell lines. The binding of F45D9-γ1 or F45D9-γ4 mAb was explored by immunofluoresce staining and flow cytometry analysis, in human PBMC, purified human resting T cells, activated human T cells, peripheral blood lymphocytes (PBL) derived from BALE/c mice, rat, dog and pig, and in B cell lines or PBL derived from common marmoset, cynomolgus macaque, olive baboon, rhesus macaque and chimpanzee. Resting and activated human T cells were prepared as described in Example 7. B cells lines from monkeys were obtained from Biomedical Primate Research Center (Rijswijk, The Netherlands), and were cultured in RPMI 1640 medium supplemented with 2 mM glutamax, 100 UI/mL penicillin, 100 μg/mL streptomycin and 10% fetal bovine serum, at 37° C. and 5% CO₂. After washing in PBS cells (0.2−0.4×10⁶ cells/well) were incubated in staining buffer (PBS/1% FBS) containing F45D9-γ1 or human IgG control antibodies (10-20 ug/ml) in a 96-well U-bottom plate for 30 min on ice, in a 100 ul/well volume. Cells were then washed once with staining buffer, and further incubated for 30 min on ice with 1:30 dilution of FITC-conjugated rabbit F(ab′)₂ anti-human kappa (DakoCytomation Cat. F0434) or FITC-conjugated rabbit F(ab′)₂ anti-human IgG (DakoCytomation Cat. F0056). […]

[2] = target: T2, Recombinant human soluble Fas receptor (PeproTech, Cat. 310-20) (human, UniProt P25445 17-173); experiment: SPR (BIAcore 3000), soluble Fas immobilized on CM5 chip, antibody as analyte, bivalent analyte fit
T2 construct: Bought soluble form; also called sFas; rFas
T2 sequence (looked up): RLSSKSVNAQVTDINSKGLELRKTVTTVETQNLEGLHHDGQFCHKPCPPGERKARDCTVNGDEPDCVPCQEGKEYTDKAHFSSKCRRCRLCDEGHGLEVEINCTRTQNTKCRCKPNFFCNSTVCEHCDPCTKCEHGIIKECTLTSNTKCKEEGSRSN
Procedure: The interaction of F45D9 mAb's (γ-γ1 and γ4-isotypes) with immobilized soluble human Fas receptor was monitored by surface plasmon resonance detection using a BIAcore 3000 instrument. Recombinant human soluble Fas receptor (srFas) (PeproTech, cat. 310-20) was immobilized (concentration of 5 ug/ml in immobilization buffer: 10 mM sodium acetate pH 5.0) onto a CM5 sensor chip (BIAcore BR-1001-14) using an Amine Coupling kit (BIAcore, Cat. BR-1000-50), at a surface density of […] resonance units (RU). Deactivation of excess reactive groups on the chip surface was done by adding 1.0 M ethalonamine hydrochloride (pH 8.5). F45D9 mAb's-γ1 mAb were passed over the surface in equilibrium binding experiments at concentrations ranging from […] at a flow rate of 30 ul/min. Dilutions and binding experiments were conducted in 0.01 M HEPES (pH 7.4), 0.15 M NaCl, 3 mM EDTA, and 0.005% P-20 (BIAcore surfactant, BR-1001-88). Between each cycle 100 mM HCl was used to regenerate the surfaces at a flow rate 30 ul/min. KA and KD of F45D9 mAb's were-γ1 mAb was determined by fitting bivalentusing BIAcore models (BIAevaluation).

[3] = target: T3, Human Fas (CD95) on the cell surface (human, UniProt P25445 26-335); experiment: flow cytometry on the human B cell line SKW6.4, FITC anti-human IgG secondary, MFI after subtraction of the control human γ1 staining
T3 construct: also called APO-1; TNR6_Human
T3 sequence: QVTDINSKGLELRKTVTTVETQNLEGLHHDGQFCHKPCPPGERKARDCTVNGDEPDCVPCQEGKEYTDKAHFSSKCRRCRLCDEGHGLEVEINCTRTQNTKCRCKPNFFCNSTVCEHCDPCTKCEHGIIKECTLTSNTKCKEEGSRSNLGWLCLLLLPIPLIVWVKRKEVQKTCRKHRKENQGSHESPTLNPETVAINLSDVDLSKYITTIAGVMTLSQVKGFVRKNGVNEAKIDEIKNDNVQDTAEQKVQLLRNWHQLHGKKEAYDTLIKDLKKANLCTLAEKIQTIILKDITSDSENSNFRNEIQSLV

[4] = target: T4, Common marmoset Fas on the cell surface (common marmoset (Callithrix jacchus)); experiment: flow cytometry on the marmoset B cell line 9601, FITC anti-human IgG secondary, MFI after subtraction of the control human γ1 staining
T4 construct: whole, on cells
Excerpt: as §1

[5] = target: T5, Rhesus macaque Fas on the cell surface (rhesus macaque, UniProt Q9BDP2 26-333); experiment: flow cytometry histograms (FL1-H) on rhesus macaque cells (cell type not printed on the sheet), FITC anti-human kappa or FITC anti-human IgG secondary
T5 construct: whole, on cells
T5 sequence (looked up): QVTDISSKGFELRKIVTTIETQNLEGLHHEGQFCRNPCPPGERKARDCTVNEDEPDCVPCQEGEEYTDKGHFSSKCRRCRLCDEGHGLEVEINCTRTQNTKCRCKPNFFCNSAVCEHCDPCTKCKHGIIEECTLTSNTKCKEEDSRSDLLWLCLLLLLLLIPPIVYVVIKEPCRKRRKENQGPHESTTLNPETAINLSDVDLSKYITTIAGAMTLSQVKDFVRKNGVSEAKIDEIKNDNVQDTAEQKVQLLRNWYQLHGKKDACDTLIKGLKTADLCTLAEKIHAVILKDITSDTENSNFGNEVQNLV
Excerpt: as §1

- binding result [1]: no binding
- Kd [2]: 0.0411 nM
- EC50 (read off the curve) [3]: ~0.8 µg/mL
- EC50 (read off the curve) [4]: ~1 µg/mL
- binding result [5]: no binding
B1: F45D9-γ1 mAb (recombinant human mAb T17/B2-1G4, gamma-1 isotype) (antibody, V domains shown)
VH: QVQLQQWGAGLLKPSETLSLICAVYGGSFSTYYWTWIRQPPGKGLEWIGEINHRGTTNYSPSLKSRVTISVDTSKNHISLNLTSVTAADTALYYCARGLLWIGEGDYGLDVWGQGTTVTVSS
VL: DIQMTQSPSSLSASVGDRVTITCRASQGIRRWLAWYQQKPEKAPKSLIYAASSLQSGVPSRFSGSGSGTDFTLTISSLQPEDFATYYCQQYNSYPYTFGQGTKLEIKR
notes: Whole human IgG1 (γ1fa allotype) with human kappa light chain, made in CHO DG44 cells; also called IgG1; T17/L18/B2-1G4
